Laboratory results from IntAct's records for PubMed 22056988.

B1: Catenin beta-1 (Homo sapiens), P35222 (parent)
chain: MATQADLMELDMAMEPDRKAAVSHWQQQSYLDSGIHSGATTTAPSLSGKGNPEEEDVDTSQVLYEWEQGFSQSFTQEQVADIDGQYAMTRAQRVRAAMFPETLDEGMQIPSTQFDAAHPTNVQRLAEPSQMLKHAVVNLINYQDDAELATRAIPELTKLLNDEDQVVVNKAAVMVHQLSKKEASRHAIMRSPQMVSAIVRTMQNTNDVETARCTAGTLHNLSHHREGLLAIFKSGGIPALVKMLGSPVDSVLFYAITTLHNLLLHQEGAKMAVRLAGGLQKMVALLNKTNVKFLAITTDCLQILAYGNQESKLIILASGGPQALVNIMRTYTYEKLLWTTSRVLKVLSVCSSNKPAIVEAGGMQALGLHLTDPSQRLVQNCLWTLRNLSDAATKQEGMEGLLGTLVQLLGSDDINVVTCAAGILSNLTCNNYKNKMMVCQVGGIEALVRTVLRAGDREDITEPAICALRHLTSRHQEAEMAQNAVRLHYGLPVVVKLLHPPSHWPLIKATVGLIRNLALCPANHAPLREQGAIPRLVQLLVRAHQDTQRRTSMGGTQQQFVEGVRMEEIVEGCTGALHILARDVHNRIVIRGLNTIPLFVQLLYSPIENIQRVAAGVLCELAQDKEAAEAIEAEGATAPLTELLHSRNEGVATYAAAVLFRMSEDKPQDYKKRLSVELTSSLFRTEPMAWNETADLGLDIGAQGEPLGYRQDDPSYRSFHSGGYGQDALGMDPMMEHEMGGHHPGADYPVDGLPDLGHAQDLMDGLPPGDSNQLAWFDTDL

Variants of: B1
Conditions: with src_human SRC

Variant | effect of a mutation on the interaction
Y333F | decreasing interaction
